This passage reports Kd results from PMC2800194.

Common to all, as to test: fluorescence anisotropy
Holding throughout (settings): Anisotropy: 45 mM Tris pH 8.0, 1 mM CoCl2, 1 mM 2-oxoglutarate, 1 nM DNA, 25 °C, added salt not stated
(In general: Polarisation of emitted light reports the rotation of a fluorescent probe.)

Series [1] concerns the target T1, AlkB D135A D135A (Escherichia coli) (UniProt P05050).
T1 sequence: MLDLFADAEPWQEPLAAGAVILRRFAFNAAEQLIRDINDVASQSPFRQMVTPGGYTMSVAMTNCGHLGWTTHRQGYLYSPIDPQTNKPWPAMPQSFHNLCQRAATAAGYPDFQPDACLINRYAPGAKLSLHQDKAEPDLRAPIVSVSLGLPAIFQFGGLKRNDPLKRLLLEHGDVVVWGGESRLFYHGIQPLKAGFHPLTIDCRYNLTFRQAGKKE

In series [2] the test system is AlkB R161A (Escherichia coli).
Series [3] has as its system AlkB T51A (Escherichia coli).
The test system of series [4] is AlkB W69A (Escherichia coli).
The test system of series [5] is AlkB Y76A (Escherichia coli).
The test system of series [6] is AlkB wt (Escherichia coli).
[7] abbreviates: one 1-methyladenine (position not given).
Where [8] appears, read: 1,N6-ethenoadenine (position not given).

As for 30-mer 1-meA, the Kd (as a rule, the equilibrium constant for the complex coming apart) was 0.316 µM in series [1] (setting [7]); 9.6 µM in series [2] (setting [7]); 1.5 µM in series [3] (setting [7]); 5.2 µM in series [4] (setting [7]); 11 µM in series [5] (setting [7]); 2 µM in series [6] (setting [7]).
With 30-mer undamaged, the Kd in series [1] amounted to 4.9 µM; in series [2], 20 µM; in series [3] it was 51 µM; in series [4], 35 µM; in series [5] (1 mM Co2+, 1 mM 2-OG), 38 µM; in series [6], 16 µM.
As for 30-mer εA, the Kd in series [1] (setting [8]) is 0.127 µM; in series [2] (setting [8]) it was 8 µM; in series [3] (setting [8]), 2.7 µM; in series [4] (setting [8]), 7.8 µM; in series [5] (setting [8]) it was 22 µM; in series [6] (setting [8]), 1.2 µM.
